Experiments:
[1] = target: T1, MBP-IDD4-DD (phospho-mimic, truncated) (Arabidopsis thaliana, UniProt Q8GYC1 20-219, S73D;T130D); experiment: EMSA; LightShift Chemiluminescent EMSA kit instructions; 20 fmol biotinylated DNA, 1 ug protein; buffer, salt, pH and temperature not stated; details: protein: recombinant; tags: MBP; label: 3' biotin; blunt
T1 sequence: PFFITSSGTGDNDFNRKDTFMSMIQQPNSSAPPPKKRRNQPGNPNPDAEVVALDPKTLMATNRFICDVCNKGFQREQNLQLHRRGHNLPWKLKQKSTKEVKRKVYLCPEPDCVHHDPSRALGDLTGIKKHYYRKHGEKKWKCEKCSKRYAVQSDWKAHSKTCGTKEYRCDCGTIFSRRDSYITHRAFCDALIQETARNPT

[2] = target: T1, MBP-IDD4-DD (phospho-mimic, truncated); experiment: competition; unlabeled competitor up to 0.5 uM (100x excess) against N1; LightShift Chemiluminescent EMSA kit instructions; 20 fmol biotinylated DNA, 1 ug protein; buffer, salt, pH and temperature not stated; details: protein: recombinant; tags: MBP; blunt

Binder	binding result [1]	binding result [2]
SAGT1 promoter ID1 probe (395s/395as) (dsDNA) DNA 1: ACATGGTAGACAAAATAATGAAGCCAAAATTAATA DNA 2: TATTAATTTTGGCTTCATTATTTTGTCTACCATGT	binds	
SAGT1 promoter ID1 competitor, unlabeled (spe) (dsDNA) DNA 1: ACATGGTAGACAAAATAATGAAGCCAAAATTAATA DNA 2: TATTAATTTTGGCTTCATTATTTTGTCTACCATGT		binds
